{"source": "the supplement of paper PMC7125110", "parents": {"B1": {"name": "glmS ribozyme (parent)", "chain": "AUAAAAGCGCCAGAACUACAGAAAUGUAGUUGACGAGGAGGAGGUUUAUCGAAUUUUCGGCGGAUGCCUCCAAA"}}, "conditions_in_all_cases": "with glucosamine-6-phosphate", "key": {"glucosamine-6-phosphate [1]": {"variants_of": "B1", "test": "kcat; higher = faster cleavage; RNA array", "procedure,_shortened": "(§1)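 Over ~14 h at 37 °C, tiles were imaged as glucosamine-6-phosphate (40 μM to 10 mM) in HEPES/KCl/Mg(OAc)2 buffer flowed across sequenced MiSeq chips. The chips carried barcoded ribozyme variants transcribed in situ by E. coli RNA polymerase and tracked with a hybridised Cy3 probe. After normalisation to baseline and to non-cleaving reference variants, one- or two-exponential decay fits of per-tile medians gave kobs. kcat and KM followed from weighted Michaelis–Menten fits across concentrations.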"}, "glucosamine-6-phosphate [2]": {"variants_of": "B1", "test": "self-cleavage kobs at 40 uM GlcN6P; higher = faster cleavage; RNA array", "procedure,_shortened": "as §1"}, "glucosamine-6-phosphate [3]": {"variants_of": "B1", "test": "self-cleavage kobs at 640 uM GlcN6P; higher = faster cleavage; RNA array", "procedure,_shortened": "as §1"}, "glucosamine-6-phosphate [4]": {"variants_of": "B1", "test": "self-cleavage kobs at 10000 uM GlcN6P; higher = faster cleavage; RNA array", "procedure,_shortened": "as §1"}, "glucosamine-6-phosphate [5]": {"variants_of": "B1", "test": "self-cleavage kobs at 160 uM GlcN6P; higher = faster cleavage; RNA array", "procedure,_shortened": "as §1"}, "glucosamine-6-phosphate [6]": {"variants_of": "B1", "test": "self-cleavage kobs at 2500 uM GlcN6P; higher = faster cleavage; RNA array", "procedure,_shortened": "as §1"}, "glucosamine-6-phosphate [7]": {"variants_of": "B1", "test": "KM; higher = weaker cofactor use; RNA array", "procedure,_shortened": "as §1"}}, "note": "± gives the standard error. For part of these data: This sample holds only a part of the variants without activity.", "data": [{"variant": "A53C G59C", "values": [{"measurement": "kcat", "setting": "glucosamine-6-phosphate [1]", "result": "< 1e-05", "unit": "s⁻¹"}, {"measurement": "self-cleavage kobs at 40 uM GlcN6P", "setting": "glucosamine-6-phosphate [2]", "result": "< 1e-05", "unit": "s⁻¹"}, {"measurement": "self-cleavage kobs at 640 uM GlcN6P", "setting": "glucosamine-6-phosphate [3]", "result": "< 1e-05", "unit": "s⁻¹"}, {"measurement": "self-cleavage kobs at 10000 uM GlcN6P", "setting": "glucosamine-6-phosphate [4]", "result": "< 1e-05", "unit": "s⁻¹"}]}, {"variant": "U55A A64G", "values": [{"measurement": "kcat", "setting": "glucosamine-6-phosphate [1]", "result": "0.0275 ± 0.012", "unit": "s⁻¹"}, {"measurement": "self-cleavage kobs at 40 uM GlcN6P", "setting": "glucosamine-6-phosphate [2]", "result": "0.000991 ± 0.00014", "unit": "s⁻¹"}, {"measurement": "self-cleavage kobs at 160 uM GlcN6P", "setting": "glucosamine-6-phosphate [5]", "result": "0.00181 ± 0.00043", "unit": "s⁻¹"}, {"measurement": "self-cleavage kobs at 640 uM GlcN6P", "setting": "glucosamine-6-phosphate [3]", "result": "0.0094 ± 0.0023", "unit": "s⁻¹"}, {"measurement": "self-cleavage kobs at 2500 uM GlcN6P", "setting": "glucosamine-6-phosphate [6]", "result": "0.0275 ± 0.0092", "unit": "s⁻¹"}, {"measurement": "self-cleavage kobs at 10000 uM GlcN6P", "setting": "glucosamine-6-phosphate [4]", "result": "0.0227 ± 0.0054", "unit": "s⁻¹"}]}, {"variant": "C10A A12C", "values": [{"measurement": "kcat", "setting": "glucosamine-6-phosphate [1]", "result": "0.00025 ± 4.4e-05", "unit": "s⁻¹"}, {"measurement": "KM", "setting": "glucosamine-6-phosphate [7]", "result": "2520 ± 930", "unit": "µM"}, {"measurement": "self-cleavage kobs at 640 uM GlcN6P", "setting": "glucosamine-6-phosphate [3]", "result": "4.03e-05 ± 8.4e-06", "unit": "s⁻¹"}, {"measurement": "self-cleavage kobs at 2500 uM GlcN6P", "setting": "glucosamine-6-phosphate [6]", "result": "0.000143 ± 1.2e-05", "unit": "s⁻¹"}, {"measurement": "self-cleavage kobs at 10000 uM GlcN6P", "setting": "glucosamine-6-phosphate [4]", "result": "0.000185 ± 1.9e-05", "unit": "s⁻¹"}]}, {"variant": "A15U G41U", "values": [{"measurement": "kcat", "setting": "glucosamine-6-phosphate [1]", "result": "0.000143 ± 2.5e-05", "unit": "s⁻¹"}, {"measurement": "self-cleavage kobs at 160 uM GlcN6P", "setting": "glucosamine-6-phosphate [5]", "result": "4.82e-05 ± 1.4e-05", "unit": "s⁻¹"}, {"measurement": "self-cleavage kobs at 640 uM GlcN6P", "setting": "glucosamine-6-phosphate [3]", "result": "0.000255 ± 5.3e-05", "unit": "s⁻¹"}, {"measurement": "self-cleavage kobs at 2500 uM GlcN6P", "setting": "glucosamine-6-phosphate [6]", "result": "0.000115 ± 1.5e-05", "unit": "s⁻¹"}, {"measurement": "self-cleavage kobs at 10000 uM GlcN6P", "setting": "glucosamine-6-phosphate [4]", "result": "0.000149 ± 1.7e-05", "unit": "s⁻¹"}]}, {"variant": "G44U G66A", "values": [{"measurement": "kcat", "setting": "glucosamine-6-phosphate [1]", "result": "0.000401 ± 9.1e-05", "unit": "s⁻¹"}, {"measurement": "self-cleavage kobs at 640 uM GlcN6P", "setting": "glucosamine-6-phosphate [3]", "result": "0.000153 ± 3.3e-05", "unit": "s⁻¹"}, {"measurement": "self-cleavage kobs at 2500 uM GlcN6P", "setting": "glucosamine-6-phosphate [6]", "result": "0.000236 ± 4.4e-05", "unit": "s⁻¹"}, {"measurement": "self-cleavage kobs at 10000 uM GlcN6P", "setting": "glucosamine-6-phosphate [4]", "result": "0.000438 ± 0.0001", "unit": "s⁻¹"}]}, {"variant": "A6U U55A", "values": [{"measurement": "kcat", "setting": "glucosamine-6-phosphate [1]", "result": "0.000365 ± 1.1e-05", "unit": "s⁻¹"}, {"measurement": "KM", "setting": "glucosamine-6-phosphate [7]", "result": "2630 ± 160", "unit": "µM"}, {"measurement": "self-cleavage kobs at 640 uM GlcN6P", "setting": "glucosamine-6-phosphate [3]", "result": "7.22e-05 ± 1.3e-05", "unit": "s⁻¹"}, {"measurement": "self-cleavage kobs at 2500 uM GlcN6P", "setting": "glucosamine-6-phosphate [6]", "result": "0.000173 ± 3.5e-05", "unit": "s⁻¹"}, {"measurement": "self-cleavage kobs at 10000 uM GlcN6P", "setting": "glucosamine-6-phosphate [4]", "result": "0.000291 ± 3.4e-05", "unit": "s⁻¹"}]}, {"variant": "G32U U54A", "values": [{"measurement": "kcat", "setting": "glucosamine-6-phosphate [1]", "result": "0.00121 ± 4.3e-05", "unit": "s⁻¹"}, {"measurement": "KM", "setting": "glucosamine-6-phosphate [7]", "result": "6510 ± 320", "unit": "µM"}, {"measurement": "self-cleavage kobs at 640 uM GlcN6P", "setting": "glucosamine-6-phosphate [3]", "result": "0.000107 ± 1.4e-05", "unit": "s⁻¹"}, {"measurement": "self-cleavage kobs at 2500 uM GlcN6P", "setting": "glucosamine-6-phosphate [6]", "result": "0.000344 ± 4.3e-05", "unit": "s⁻¹"}, {"measurement": "self-cleavage kobs at 10000 uM GlcN6P", "setting": "glucosamine-6-phosphate [4]", "result": "0.000726 ± 0.0001", "unit": "s⁻¹"}]}, {"variant": "A33U U55G", "values": [{"measurement": "kcat", "setting": "glucosamine-6-phosphate [1]", "result": "0.000103 ± 1e-05", "unit": "s⁻¹"}, {"measurement": "KM", "setting": "glucosamine-6-phosphate [7]", "result": "1990 ± 570", "unit": "µM"}, {"measurement": "self-cleavage kobs at 640 uM GlcN6P", "setting": "glucosamine-6-phosphate [3]", "result": "3.4e-05 ± 1.3e-05", "unit": "s⁻¹"}, {"measurement": "self-cleavage kobs at 2500 uM GlcN6P", "setting": "glucosamine-6-phosphate [6]", "result": "5.38e-05 ± 7.7e-06", "unit": "s⁻¹"}, {"measurement": "self-cleavage kobs at 10000 uM GlcN6P", "setting": "glucosamine-6-phosphate [4]", "result": "8.77e-05 ± 1e-05", "unit": "s⁻¹"}]}]}
